Measured values reported in article PMC10718286.

Tested on: C[S+](CC[C@H](N)C(=O)O)C[C@H]1O[C@@H](n2cnc3c(N)ncnc32)[C@H](O)[C@@H]1O
Test: purified protein
Conditions: catalytic SET domain; varied: cofactor

SETDB1 (full-length, SETDB1-FL) (Homo sapiens)
kcat: 8.06e-05 s⁻¹ | kcat/Km: 88.9 M⁻¹ s⁻¹
